Patent publication US20220331394A1 (SUSAVION BIOSCIENCES, published 2022)
Each block holds one binder with its values, some of them ahead of it. No end group written: not given here.

Experiments:
CLEC9A = target: T1, CLEC9A (human, UniProt Q6UXN8 57-241); experiment: solid-phase binding assay with recombinant receptor
T1 construct: construct not described
Procedure: (§1) Binding Assays Solid-phase binding assays were performed with streptavidin-, protein A/G-, or Nickel-coated microtiter plates (Pierce). His-tagged or Fc-fusion recombinant receptors (R&D Systems, Minneapolis, Minn.) were reconstituted in PBS. Sufficient receptors were added to wells to saturate the coating. His-tagged receptors were added to each well at a 5-fold excess over the stated capacity of the Ni coating to minimize non-specific binding of the peptide. Wells were washed three times with binding buffer (25 mM Tris HCl, pH 7.4, 150 mM NaCl, 0.05% Tween-20) to remove unbound receptor and 50 μL of 2 μM biotinylated peptide in binding buffer were added and allowed to incubate for 1 h. The wells were washed four times with binding buffer and then incubated with 50 μL of 1 μg/mL streptavidin conjugated with peroxidase (Sigma-Aldrich) for 1 h. The wells were washed five times with binding buffer and 50 μL of peroxidase substrate (1-Step™ Ultra TMB, Pierce) were added. After several minutes to allow color development, the reaction was stopped with 50 μL 1 M H₃PO₄ and absorbance was measured at 450 nm. Bound streptavidin was quantitated by the specific activity of peroxidase (absorbance/ng protein conjugate/min) under the conditions of the assay.
(§2) Solid-phase binding assays were performed with recombinant human receptors. Three variations of the binding assay were used in this study, all of which allowed the arms of the tetravalent peptide to have full flexibility. (i) Biotinylated peptide was bound in microtiter wells coated with streptavidin and incubated with recombinant human receptors. After extensive washing, the bound receptor was measured by peroxidase conjugated to a receptor-specific antibody. (ii) The extracellular domains of receptors, which were fused with the Fc domain of immunoglobulin IgG, were bound in wells coated with protein A/G. Biotinylated peptide was incubated with the receptors and, after extensive washing, bound peptide was measured with streptavidin conjugated with peroxidase. Or (iii), recombinant receptors with a poly-His tag were bound to Nickel-coated wells and incubated with biotinylated peptide. svL4 and sv6D contain His residues (FIGS. 1A, 1C) and can bind to the Ni coating, which was minimized by adding sufficient poly-His-tagged receptor to saturate the Ni coating.

IL-4R = target: T2, IL-4R (human, UniProt P24394 26-232, limits assumed); experiment: as above
T2 construct: construct not described; also called receptor for IL-4
T2 sequence (looked up): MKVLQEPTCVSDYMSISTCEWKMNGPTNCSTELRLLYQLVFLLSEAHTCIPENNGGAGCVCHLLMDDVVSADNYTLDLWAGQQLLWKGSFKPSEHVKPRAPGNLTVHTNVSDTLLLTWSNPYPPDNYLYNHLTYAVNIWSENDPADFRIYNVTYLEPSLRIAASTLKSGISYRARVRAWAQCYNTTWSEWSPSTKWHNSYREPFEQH
Procedure: as §1, §2

Siglec-1 = target: T3, Siglec-1 (human, UniProt Q9BZZ2 20-1641, limits assumed); experiment: as above
T3 construct: construct not described
Procedure: as §1, §2

CD44 = target: T4, CD44 (human, UniProt P16070 21-220, limits assumed); experiment: as above
T4 construct: construct not described; also called receptor for hyaluronic acid
Procedure: as §1, §2

DC-SIGN = target: T5, DC-SIGN (human, UniProt Q9NNX6 62-404, limits assumed); experiment: as above
T5 construct: construct not described; also called CD209; dendritic cell-specific intercellular adhesion molecule (ICAM)-3 grabbing non-integrin
T5 sequence (looked up): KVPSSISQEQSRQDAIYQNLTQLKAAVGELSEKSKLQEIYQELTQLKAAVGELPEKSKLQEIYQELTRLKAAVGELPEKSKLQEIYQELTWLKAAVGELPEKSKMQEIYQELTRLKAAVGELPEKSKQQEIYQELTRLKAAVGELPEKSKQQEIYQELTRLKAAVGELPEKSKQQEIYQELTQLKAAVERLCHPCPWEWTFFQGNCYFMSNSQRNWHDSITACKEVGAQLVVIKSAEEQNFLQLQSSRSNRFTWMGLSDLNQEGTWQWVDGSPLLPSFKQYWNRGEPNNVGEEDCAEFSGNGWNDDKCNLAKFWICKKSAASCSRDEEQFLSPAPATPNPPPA
Procedure: as §1, §2

[1] = target: T6, recombinant human Ca2+-dependent lectin-type receptor family member 10A (CLEC10A) (human, UniProt Q8IUN9 61-316); experiment: solid-phase binding assay, double-reciprocal plot of binding vs. peptide concentration
T6 construct: extracellular domain; Bought recombinant receptor; also called CD301; macrophage galactose-type lectin
T6 sequence (looked up): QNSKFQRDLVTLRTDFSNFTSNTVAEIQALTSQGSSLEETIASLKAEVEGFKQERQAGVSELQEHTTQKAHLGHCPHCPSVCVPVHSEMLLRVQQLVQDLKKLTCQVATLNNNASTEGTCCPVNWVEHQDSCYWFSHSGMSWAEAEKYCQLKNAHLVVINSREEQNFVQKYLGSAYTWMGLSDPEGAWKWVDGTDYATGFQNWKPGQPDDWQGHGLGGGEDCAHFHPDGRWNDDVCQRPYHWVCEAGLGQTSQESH
Procedure: (§3) Binding was detected with streptavidin-peroxidase conjugate. Similar data were obtained in 2 experiments. (FIG. 3C) Inhibition by EGTA of binding of sv6D (pattern) or svL4 (solid) to CLEC10A and ASGPR-1, respectively. EGTA (1 mM) was added to the final concentrations indicated to assays. Retention of bound CLEC10A was determined by incubation with biotinylated anti-CLEC10A (goat IgG, R&D Systems) and detection with streptavidin-peroxidase conjugate (light grey circle). Similar data were obtained in 3 experiments. (FIG. 3D) Binding of svL4 and sv6D to human recombinant CLEC10A and ASGPR-1 as a function of concentration of peptide in the assay. The figure is representative of 4 separate assays.
as §1
(§4) Corresponding values for binding of svL4 to CLEC10A and ASGPR-1 of 0.24±0.04 μM and 0.21±0.03 μM, respectively, were obtained (FIG. 3D).

[2] = target: T7, recombinant human asialoglycoprotein receptor 1 (ASGPR-1) (human, UniProt P07306 62-291); experiment: as above
T7 construct: extracellular domain; Bought recombinant receptor; also called Ashwell-Morell receptor; CLEC4H1
T7 sequence (looked up): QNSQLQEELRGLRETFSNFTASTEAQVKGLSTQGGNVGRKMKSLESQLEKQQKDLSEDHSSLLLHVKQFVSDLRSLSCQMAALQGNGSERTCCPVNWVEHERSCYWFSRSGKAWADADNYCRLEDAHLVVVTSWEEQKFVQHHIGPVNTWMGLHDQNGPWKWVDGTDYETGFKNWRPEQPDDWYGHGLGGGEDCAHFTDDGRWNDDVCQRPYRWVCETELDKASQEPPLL
Procedure: as §3, §1, §4

recombinant rat CLEC10A = target: T8, recombinant rat CLEC10A (rat, UniProt P49301 59-306, limits assumed); experiment: solid-phase competition with biotinylated GalNAc-PAA
T8 construct: construct not described; also called CLEC10A from rat
T8 sequence (looked up): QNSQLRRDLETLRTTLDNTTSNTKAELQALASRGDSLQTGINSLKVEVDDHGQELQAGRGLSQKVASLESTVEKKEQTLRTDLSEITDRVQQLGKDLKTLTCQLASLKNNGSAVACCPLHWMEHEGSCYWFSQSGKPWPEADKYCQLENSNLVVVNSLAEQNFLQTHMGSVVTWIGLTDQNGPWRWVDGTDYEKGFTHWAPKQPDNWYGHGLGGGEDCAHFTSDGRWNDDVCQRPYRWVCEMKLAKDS
Procedure: as §3, with “FIGS. 3A-3D. sv6D as a mimetic of GalNAc. (FIG. 3A) Inhibition by sv6D of binding of multivalent GalNAc-PAA (GlycoTech Corp., Frederick, Md.) to recombinant rat CLEC10A and human ASGPR-1. The reaction mixture included approximately 200 pmoles of biotinylated GalNc-PAA and increasing concentrations of peptide. The figure includes average values from 3 independent experiments. (FIG. 3B) Biotinylated sv6D or GalNAc-PAA were incubated with rabbit antiserum raised against the 6D sequence (NQHTPR) conjugated to keyhole limpet hemocyanin (KLH). Binding was” for “Binding was”
To further determine whether sv6D interacts with the actual sugar binding site, the ability of sv6D to compete with GalNAc-PAA for binding was assayed. […]

[3] = target: T6, recombinant human Ca2+-dependent …; experiment: solid-phase binding assay with recombinant human receptor
Procedure: as §1, with “The wells were washed five times with binding buffer and 50 μL of peroxidase substrate (1-Step™ Ultra TMB, Pierce) were added.” left out
(§5) Solid-phase binding assays were performed with recombinant human receptors. […] After extensive washing, the bound receptor was measured by peroxidase conjugated to a receptor-specific antibody. […]

[4] = target: T7, recombinant human asialoglycoprotein …; experiment: as above
Procedure: as §1, with “The wells were washed five times with binding buffer and 50 μL of peroxidase substrate (1-Step™ Ultra TMB, Pierce) were added.” left out
as §5

T3 sequence (Q9BZZ2 20-1641 limits assumed): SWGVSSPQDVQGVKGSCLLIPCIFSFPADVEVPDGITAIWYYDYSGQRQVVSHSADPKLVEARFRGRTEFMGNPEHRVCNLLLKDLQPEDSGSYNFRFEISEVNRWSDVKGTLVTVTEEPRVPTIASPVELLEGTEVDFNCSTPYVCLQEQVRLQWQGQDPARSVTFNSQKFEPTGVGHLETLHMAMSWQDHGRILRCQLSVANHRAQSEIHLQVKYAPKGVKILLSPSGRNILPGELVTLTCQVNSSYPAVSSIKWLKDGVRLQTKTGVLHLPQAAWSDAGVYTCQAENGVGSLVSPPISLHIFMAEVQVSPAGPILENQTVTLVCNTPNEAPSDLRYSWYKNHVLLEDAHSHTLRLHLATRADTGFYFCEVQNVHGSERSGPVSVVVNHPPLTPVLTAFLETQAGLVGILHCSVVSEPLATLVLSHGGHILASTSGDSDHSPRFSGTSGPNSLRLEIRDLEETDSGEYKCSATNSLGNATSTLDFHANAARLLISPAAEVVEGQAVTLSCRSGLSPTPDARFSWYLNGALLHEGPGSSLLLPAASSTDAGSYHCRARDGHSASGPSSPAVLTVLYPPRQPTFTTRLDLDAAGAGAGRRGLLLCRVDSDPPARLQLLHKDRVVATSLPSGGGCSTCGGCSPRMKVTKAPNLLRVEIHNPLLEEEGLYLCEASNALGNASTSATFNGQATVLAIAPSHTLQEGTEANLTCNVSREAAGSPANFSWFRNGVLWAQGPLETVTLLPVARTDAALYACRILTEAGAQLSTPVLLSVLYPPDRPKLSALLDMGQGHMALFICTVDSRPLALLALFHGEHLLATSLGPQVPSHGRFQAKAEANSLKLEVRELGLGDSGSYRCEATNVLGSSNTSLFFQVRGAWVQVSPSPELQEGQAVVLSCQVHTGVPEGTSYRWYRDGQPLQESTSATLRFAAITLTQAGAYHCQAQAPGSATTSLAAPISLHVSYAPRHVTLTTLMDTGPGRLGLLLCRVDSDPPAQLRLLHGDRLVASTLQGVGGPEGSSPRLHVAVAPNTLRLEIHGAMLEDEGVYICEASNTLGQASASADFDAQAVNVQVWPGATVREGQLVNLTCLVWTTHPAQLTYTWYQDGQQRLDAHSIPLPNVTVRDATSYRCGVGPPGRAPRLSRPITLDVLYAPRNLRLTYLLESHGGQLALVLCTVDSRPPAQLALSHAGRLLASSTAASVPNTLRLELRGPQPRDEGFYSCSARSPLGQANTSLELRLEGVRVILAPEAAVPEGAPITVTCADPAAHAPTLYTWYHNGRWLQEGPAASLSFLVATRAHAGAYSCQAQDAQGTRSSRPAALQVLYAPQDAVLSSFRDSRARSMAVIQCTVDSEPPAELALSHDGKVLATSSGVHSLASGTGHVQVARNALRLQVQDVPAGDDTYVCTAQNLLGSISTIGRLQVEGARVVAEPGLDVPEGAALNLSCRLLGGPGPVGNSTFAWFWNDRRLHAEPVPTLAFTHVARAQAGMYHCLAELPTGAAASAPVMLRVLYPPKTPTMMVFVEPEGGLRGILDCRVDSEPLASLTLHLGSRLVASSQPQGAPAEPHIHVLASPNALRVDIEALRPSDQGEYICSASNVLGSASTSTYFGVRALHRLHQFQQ
T1 sequence (Q6UXN8 57-241 limits assumed): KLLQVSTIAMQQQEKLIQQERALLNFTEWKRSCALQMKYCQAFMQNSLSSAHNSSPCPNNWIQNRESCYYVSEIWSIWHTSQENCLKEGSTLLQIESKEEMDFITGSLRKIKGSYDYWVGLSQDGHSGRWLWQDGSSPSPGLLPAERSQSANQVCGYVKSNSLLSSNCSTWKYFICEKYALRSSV
T4 sequence (P16070 21-220 limits assumed): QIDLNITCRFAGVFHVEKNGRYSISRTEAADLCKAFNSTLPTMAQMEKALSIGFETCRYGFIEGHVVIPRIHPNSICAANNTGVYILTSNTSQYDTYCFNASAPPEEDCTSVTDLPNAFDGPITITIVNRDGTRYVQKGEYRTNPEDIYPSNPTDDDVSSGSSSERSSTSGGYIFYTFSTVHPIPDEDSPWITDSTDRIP

Kd [1]: 240 nM
Kd [2]: 210 nM
B1: svL4 (peptide)
peptide: VQATQSNQHTPRGGGS
modifications: also: tetravalent: four arms joined through GGGS linker to branched tri-lysine core, core C-terminus amide or biotinyl-lysinyl-amide
notes: the tie follows from svL4 being the 12-mer whose C-terminal 6-mer is sv6D (NQHTPR); also called tetravalent peptide svL4; full-length svL4
binding result (CLEC9A): no binding (tested: 2 µM biotinylated peptide)
binding result (IL-4R): no binding (tested: 2 µM biotinylated peptide)
binding result (Siglec-1): no binding (tested: 2 µM biotinylated peptide)
binding result (CD44): no binding (tested: 2 µM biotinylated peptide)
binding result (DC-SIGN): no binding (tested: 2 µM biotinylated peptide)

binding result (recombinant rat CLEC10A): binds
Kd [1]: 150 nM
Kd [2]: 120 nM
B2: sv6D (peptide)
peptide: NQHTPRGGGS
modifications: also: tetravalent: four arms joined through GGGS linker to branched tri-lysine core, core C-terminus amide or biotinyl-lysinyl-amide
notes: Tetravalent branched construct: four arms NQHTPR + GGGS linker on a tri-lysine core; Biotinylated in solid-phase assays; also called tetravalent peptide sv6D; C-terminal half of svL4
binding result (CLEC9A): no binding (tested: 2 µM biotinylated peptide)
binding result (IL-4R): no binding (tested: 2 µM biotinylated peptide)
binding result (Siglec-1): no binding (tested: 2 µM biotinylated peptide)
binding result (CD44): no binding (tested: 2 µM biotinylated peptide)
binding result (DC-SIGN): no binding (tested: 2 µM biotinylated peptide)

B3: svC1 (peptide)
peptide: VQATQSGGGS
modifications: also: arms on branched tri-lysine core as for svL4, biotinylated at C-terminus of core in binding assays
notes: also called N-terminal half of svL4
binding result [3]: no binding (tested: 2 µM biotinylated peptide)
binding result [4]: no binding (tested: 2 µM biotinylated peptide)
